This is an account of results in publication PMC9458691.

What all share (experiment): native gel or EMSA; Blue Native PAGE, gradient from 3.5 to 16% polyacrylamide, of the IEC fractions of affinity purified PSII
Assay [1] deals with PSII with the protein composition of mature PSII, isolated via CP43-TS-Tag (T. elongatus (endogenous in T. elongatus BP-1) | Thermosynechococcus elongatus BP-1) (UniProt P0A444).
Assay [2] deals with PSII with the protein composition of mature PSII, isolated via His-tagged CP43 (T. elongatus (endogenous in T. elongatus) | Thermosynechococcus elongatus) (UniProt P0A444).
Assay [3] deals with Psb27-PSII complex isolated via CP43-TS-Tag (PSII with Psb27, without the extrinsic subunits) (T. elongatus (endogenous in T. elongatus BP-1) | Thermosynechococcus elongatus BP-1) (UniProt P0A444).
Assay [4] concerns the target Psb27-PSII complex isolated via His-tagged CP43 (PSII with Psb27, without the extrinsic subunits) (T. elongatus (endogenous in T. elongatus) | Thermosynechococcus elongatus) (UniProt P0A444).

As for “PSII with the protein composition of mature PSII, isolated via CP43-TS-Tag (from UniProt P0A444 1-344; Q8CM25 1-352; Q8DIF8 1-461; Q8DIQ1 1-510; P0A431 27-272; Q9F1L5 31-134; P0A386 27-163) (complex)”, in assay [1], the stoichiometry N turned out to be 2. On to “PSII with the protein composition of mature PSII, isolated via His-tagged CP43 (from UniProt P0A444 1-344; Q8CM25 1-352; Q8DIF8 1-461; Q8DIQ1 1-510; P0A431 27-272; Q9F1L5 31-134; P0A386 27-163) (complex)”, for which the stoichiometry N in assay [2] stood at 2. In assay [3], “Psb27-PSII complex isolated via CP43-TS-Tag (PSII with Psb27, without the extrinsic subunits) (from UniProt P0A444 1-344; Q8CM25 1-352; Q8DIF8 1-461; Q8DIQ1 1-510; Q8DG60 22-134)” came in with a stoichiometry N of 2. As to “Psb27-PSII complex isolated via His-tagged CP43 (PSII with Psb27, without the extrinsic subunits) (from UniProt P0A444 1-344; Q8CM25 1-352; Q8DIF8 1-461; Q8DIQ1 1-510; Q8DG60 22-134)”, the stoichiometry N in assay [4] was 2.

The stoichiometry N is the number of molecules, sites or subunits per partner or assembly.
